Data as given in paper PMC3565030.

Target: T1, Eco1 phosphopeptide “94-98-99” (phosphates at Thr94, Ser98 and Ser99), FITC-conjugated (budding yeast)
T1 chain: GTITPLNSSPLKK
Assay: fluorescence polarisation

B1: Cdc4–Skp1 complex (His6-Cdc4-LP6DelA GST-Skp1), P07834 1-779; P52286 1-194 (complex)
chain 1: GTLIKDNLKRDLITSLPFEISLKIFNYLQFEDIINSLGVSQNWNKIIRKSTSLWKKLLISENFVSPKGFNSLNLKLSQKYPKLSQQDRLRLSFLENIFILKNWYNPKFVPQRTTLRGHMTSVITCLQFEDNYVITGADDKMIRVYDSINKKFLLQLSGHDGGVWALKYAHGGILVSGSTDRTVRVWDIKKGCCTHVFEGHNSTVRCLDIVEYKNIKYIVTGSRDNTLHVWKLPKESSVPDHGEEHDYPLVFHTPEENPYFVGVLRGHMASVRTVSGHGNIVVSGSYDNTLIVWDVAQMKCLYILSGHTDRIYSTIYDHERKRCISASMDTTIRIWDLENGELMYTLQGHTALVGLLRLSDKFLVSAAADGSIRGWDANDYSRKFSYHHTNLSAITTFYVSDNILVSGSENQFNIYNLRSGKLVHANILKDADQIWSVNFKGKTLVAAVEKDGQSFLEILDFS
chain 2: MVTSNVVLVSGEGERFTVDKKIAERSLLLKNYLNDMGDDDDEDDDEIVMPVPNVRSSVLQKVIEWAEHHRDSNFPDEDDDDSRKSAPVDSWDREFLKVDQEMLYEIILAANYLNIKPLLDAGCKVVAEMIRGRSPEEIRRTFNIVNDFTPEEEAAIRRENEWAEDR
modifications: not checked
In the case of B1, the Kd is reported as 10.3 µM.
